According to patent US20150219635A1:

Target: IgE-Fc(E289C)_BirA, terbium chelate labelled, biotinylated, mixed with Alexa488 labelled streptavidin (human), P01854
Experiment: cell-based or functional assay

Sequence of IgE-Fc(E289C)_BirA, terbium chelate labelled, biotinylated, mixed with Alexa488 labelled streptavidin (human), P01854 (P01854 other isoform, or with tags, fused parts or gaps, stated change not applied): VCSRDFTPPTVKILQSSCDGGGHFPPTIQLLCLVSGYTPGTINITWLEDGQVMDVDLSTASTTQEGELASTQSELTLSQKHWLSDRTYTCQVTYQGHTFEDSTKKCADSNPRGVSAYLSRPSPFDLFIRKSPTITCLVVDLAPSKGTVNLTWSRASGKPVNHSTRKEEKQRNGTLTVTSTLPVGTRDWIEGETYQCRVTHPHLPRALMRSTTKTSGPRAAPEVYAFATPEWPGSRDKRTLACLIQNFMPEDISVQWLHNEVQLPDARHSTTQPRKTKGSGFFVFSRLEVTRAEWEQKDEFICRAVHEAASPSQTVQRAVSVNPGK

B1: Fab7 (anti-human IgE Fab, human IgG1 Fab format) (Fab)
heavy: QVQLQQSGPGLVKPSQTLSLTCGISGDSVSSNSAAWNWLRQSPSRGLEWLGRTYYRSKWYNDYAVSMKSRITINPDTSRNQFSLQLNSVTPEDTAVYYCARDGEISYDYYYYGMDVWGRGTLVTVSSASTKGPSVFPLAPSSKSTSGGTAALGCLVKDYFPEPVTVSWNSGALTSGVHTFPAVLQSSGLYSLSSVVTVPSSSLGTQTYICNVNHKPSNTKVDKKVEPKSC
light: not shown
modifications: here or on the partner: thiol reactive terbium chelate on the Cys of E289C; biotin on the C-terminal BirA recognition motif (carrying Alexa488 labelled streptavidin)
  normalised FRET, mean, at [Fab] 0.152 nM: 1
  normalised FRET, mean, at [Fab] 0.45 nM: 0.2
  normalised FRET, mean, at [Fab] 1.37 nM: 1.55
  normalised FRET, mean, at [Fab] 4.4 nM: 0.1
  normalised FRET, mean, at [Fab] 12.3 nM: 2
  normalised FRET, mean, at [Fab] 37.03 nM: 9.68
  normalised FRET, mean, at [Fab] 111 nM: 28.8
  normalised FRET, mean, at [Fab] 333 nM: 39.3
  normalised FRET, mean, at [Fab] 1000 nM: 43.4
  normalised FRET, mean, at [Fab] 3000 nM: 41
